Target: soluble C-terminally truncated HAP2 ectodomain (HAP2e), residues 23-592, Chlamydomonas reinhardtii (Chlamydomonas reinhardtii) (UniProt A4GRC6)
Assay: SEC-MALS

Substance: soluble C-terminally truncated HAP2 ectodomain (HAP2e), residues 23-592, Chlamydomonas reinhardtii (from UniProt A4GRC6 23-592) (domain or fragment)
- stoichiometry N: 6

— publication PMC5332557
